The values below come from US20110262525A1, “METHODS OF TREATMENT” (SCHERING CORPORATION, priority 2006, published 2011).

Marks after values point to notes of the source that are not given here.

In this assay the test system is ALL-17 xenograft (ALL B-precursor). Description: PPTP in vivo leukemia xenograft ALL-17. The arrangement: key to EFS activity notation (high, intermediate, indeterminate): high (!); intermediate (#); indeterminate (^). As to conditions: ALL-17 (ALL B-precursor) xenograft; 0.5 mg per mouse ip twice weekly for four weeks. On the procedure:
The PPTP includes a molecularly characterized in vitro panel of cell lines (n=27) and in vivo panel of xenografts (n=61) representing most of the common types of childhood solid tumors and childhood ALL (acute lymphoblastic leukemia). LCF/HCA anti-IGF1R antibody was tested against the PPTP in vitro panel at concentrations ranging from 0.01 nM to 100 nM; and was tested against the PPTP in vivo panel at a dose of 0.5 mg per mouse administered twice weekly for four weeks via intraperitoneal injection. Three measures of antitumor activity were used: 1) response criteria modeled after the clinical setting; 2) treated-to-control (T/C) tumor volume at day 21; and 3) a time to event (4-fold increase in tumor volume) measure based on the median EFS of treated and control lines (intermediate activity required EFS (event-free survival) T/C>2, and high activity additionally required a net reduction in median tumor volume at the end of the experiment).
Stage 1 testing involved testing an agent across the entire PPTP panel of childhood cancer xenograft lines at its maximum tolerated dose (MTD) or at a dose selected based on PK/PD (pharmacokinetic/pharmacodynamic) studies using adult preclinical models.
In vivo acute lymphoblastic leukemia testing: For each xenograft line, 8 mice were inoculated with 3-5×10^6 mononuclear cells purified from the spleens of secondary recipient mice. Engraftment was monitored weekly by flow cytometry, and treatment was initiated when the proportion of human CD45+ cells in the peripheral blood reached 1%. The proportion of human CD45+ cells in the peripheral blood was monitored weekly throughout the course of treatment.
Drug: LCF/HCA was dissolved in 20mM sodium acetate pH 5 buffer containing 150 mM sodium chloride, and administered intraperitoneally twice weekly for 4 consecutive weeks at a dose of 0.5 mg per animal. The antibody was provided to each testing site in coded vials for blinded testing according the PPTP's standard operating procedures.
Median Group Response: Each individual mouse in each treatment group was assigned a response score (see Tables above) and a median score for the treatment group was calculated and then each treatment group was assigned an overall response according to the table below.
Statistical Methods: Event-free survival (EFS) distributions of each treatment group were compared to the EFS distribution of the respective control group using the exact log rank test. P-values were 2-sided & were not adjusted for multiple comparisons given the exploratory nature of this study. P-values<0.05 were considered to be significant.

B1: LCF/HCA: fully human anti-IGF1R antibody comprising the mature 19D12/15H12 light chain F (LCF) and mature heavy chain A (HCA) (antibody, V domains shown)
VH: EVQLVQSGGGLVHPGGSLRLSCAASGFTFSSFAMHWVRQAPGKGLEWISVIDTRGATYYADSVKGRFTISRDNAKNSLYLQMNSLRAEDMAVYYCARLGNFYYGMDVWGQGTTVTVSS
VL: EIVLTQVPDFQSVTPKEKVTITCRASQSIGSSLHWYQQKPDQSPKLLIKYASQSLSGVPSRFSGSGSGTDFTLTINSLEAEDAAAYYCHQSSRLPHTFGGGTKVEIKRT
As to B1, the “EFS T/C” value is on record as 3.1; the “EFS activity notation (high, intermediate, indeterminate)” value is recorded as “#”; the “Median Final RTV” value was >25#; the “Overall Group Response” value is reported as “PD2 (1 < MS ≦ 3)”.
